Measurements published in US20250215089A1 (HARBOUR BIOMED SHANGHAI, published 2025).

What was measured:
human CD40 [1] = target: T1, human CD40 (human, UniProt P25942 21-277); experiment: FACS, CHO-K1/hCD40 cells
T1 construct: whole, on cells; also called hCD40; TNFRSF5
Protocol: (§1) The cells were incubated at 4° C. for 1 hours in the dark. After the incubation, the cells were rinsed twice by adding pre-chilled PBS at 100 μL/well, and centrifuged at 500 g at 4° C. for 5 minutes, and the supernatant was discarded. Then, a fluorescent secondary antibody (goat anti-human IgG (H+L) secondary antibody, Alexa Fluor® 488 conjugate, Invitrogen, #A11013, 1:1000 dilution) was added at 100 μL/well, and the cells were incubated at 4° C. for 30 minutes in the dark. The cells were washed twice with pre-chilled PBS at 200 μL/well, and centrifuged at 500 g at 4° C. for 5 minutes, and the supernatant was discarded. Finally, the cells were resuspended in pre-chilled PBS at 200 μL/well. The fluorescence signal values were read using a BD FACS CANTOII flow cytometer or ACEA NovoCyte flow cytometer, and the data were processed and analyzed using FlowJo v10 software (FlowJo, LLC).

human PD-L1 [2] = target: T2, human PD-L1 (human, UniProt Q9NZQ7 19-290); experiment: FACS, NCI-H226 cells
T2 construct: whole, on cells; also called hPD-L1; CD274
T2 sequence (Q9NZQ7 19-290): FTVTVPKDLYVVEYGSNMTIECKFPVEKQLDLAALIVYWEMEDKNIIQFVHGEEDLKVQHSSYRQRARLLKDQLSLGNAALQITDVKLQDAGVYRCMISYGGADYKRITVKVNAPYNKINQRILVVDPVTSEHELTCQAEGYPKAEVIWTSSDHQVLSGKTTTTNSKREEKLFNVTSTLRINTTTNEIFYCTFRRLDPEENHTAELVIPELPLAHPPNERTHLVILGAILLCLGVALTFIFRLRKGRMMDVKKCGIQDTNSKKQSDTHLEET
Protocol: (§2) Specifically, the cells expressing PD-L1 were digested and resuspended in PBS buffer containing 2% BSA. The cells were adjusted to a cell density of 1×10⁶ cells/mL, respectively. The cells were seeded in a 96-well V-bottom plate (Corning, #3894) at 100 μL/well, and the antibody to be tested at 2×final concentration with 4-fold concentration gradient dilution was then added at 100 μL/well. The cells were incubated at 4° C. for 2 hours in the dark. After the incubation, the cells were rinsed twice by adding pre-chilled PBS containing 2% BSA at 100 μL/well, and centrifuged at 500 g at 4° C. for 5 minutes, and the supernatant was discarded. […] The cells were washed twice by adding pre-chilled PBS containing 2% BSA at 100 µL/well, and centrifuged at 500 g at 4° C. for 5 minutes, and the supernatant was discarded. Finally, the cells were resuspended in pre-chilled PBS buffer containing 2% BSA at 200 μL/well. The fluorescence signal values were read using a BD FACS CANTOII flow cytometer or ACEA NovoCyte flow cytometer, and the data were processed and analyzed using FlowJo v10 software (FlowJo, LLC).

cynomolgus monkey PD-L1 = target: T3, cynomolgus monkey PD-L1 (cynomolgus monkey); experiment: FACS, CHO-K1/cyPD-L1 cells
T3 construct: whole, on cells; also called cyPD-L1
Protocol: as §2

human PD-L1 [3] = target: T2, human PD-L1; experiment: cell-based or functional assay
human CD40 [4] = target: T1, human CD40; experiment: FACS, Raji cells
Protocol: as §1

cynomolgus monkey CD40 = target: T4, cynomolgus monkey CD40 (cynomolgus monkey); experiment: FACS, CHO-K1/cyCD40 cells
T4 construct: whole, on cells; also called cyCD40
Protocol: as §1

human PD-L1 [5] = target: T2, human PD-L1; experiment: FACS, CHO-K1/hPD-L1 cells
Protocol: as §2

T1 sequence (P25942 21-277): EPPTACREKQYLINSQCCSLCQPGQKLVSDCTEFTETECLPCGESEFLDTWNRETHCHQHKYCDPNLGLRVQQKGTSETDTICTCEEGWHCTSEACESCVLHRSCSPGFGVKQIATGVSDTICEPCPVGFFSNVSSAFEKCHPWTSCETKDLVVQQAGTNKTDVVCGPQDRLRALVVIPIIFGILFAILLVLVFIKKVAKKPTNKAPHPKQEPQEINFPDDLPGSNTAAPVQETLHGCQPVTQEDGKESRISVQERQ

B1: PR007282 (bispecific antibody, human IgG1, kappa)
heavy: QVQLVESGGGVVQPGMSLRLSCAASGFDFSSYGMYWVRQAPGKGQEWVASIRYTGTEKHYADSVKGRFTISRDNSKNTLYLEMNSLRVEDTAVYYCAKNRALFGVIPDASDIRGQGTMVTVSSGGGGSQVQLVQSGAEVKKPGASVKVSCKASGYTFAGYYMYWVRQAPGQGLEWMGWINPDSGAPTYAQKFQGRVTMTRDTSISTAYMELSRLRSDDTAVYYCAREKIYYGSGNYYPSFDYWGQGTLVTVSSASTKGPSVFPLAPSSKSTSGGTAALGCLVKDYFPEPVTVSWNSGALTSGVHTFPAVLQSSGLYSLSSVVTVPSSSLGTQTYICNVNHKPSNTKVDKKVEPKSCDKTHTCPPCPAPEAAGAPSVFLFPPKPKDTLMISRTPEVTCVVVDVSHEDPEVKFNWYVDGVEVHNAKTKPREEQYNSTYRVVSVLTVLHQDWLNGKEYKCKVSNKALPAPIEKTISKAKGQPREPQVYTLPPSREEMTKNQVSLTCLVKGFYPSDIAVEWESNGQPENNYKTTPPVLDSDGSFFLYSKLTVDKSRWQQGNVFSCSVMHEALHNHYTQKSLSLSPGK
light: DIQLTQSPSFLSASVGDRVTITCRASQGISSYLAWYQQKPGKAPKLLIYAASTLQSGVPSRFSGSGSGTEFTLTISSLQPEDFATYYCQQLVSYPWTFGQGTKVEIKRTVAAPSVFIFPPSDEQLKSGTASVVCLLNNFYPREAKVQWKVDNALQSGNSQESVTEQDSKDSTYSLSSTLTLSKADYEKHKVYACEVTHQGLSSPVTKSFNRGEC
notes: VH of PR006247 (PD-L1) - GS_5 - heavy chain of CD40 IgG PR006504; human IgG1 L234A/L235A/G237A; also called PD-L1×CD40
Human CD40 [1]
  EC50: 1.88 nM
  Maximum MFI: 13500 MFI
Human PD-L1 [2]
  EC50: 0.61 nM
  Maximum MFI: 983 MFI
Cynomolgus monkey PD-L1
  EC50: 0.834 nM
  Maximum MFI: 4620 MFI
Human PD-L1 [3]
  EC50, Jurkat-NFAT-hPD1 reporter: 0.188 nM
  Maximum (RLU), Jurkat-NFAT-hPD1 reporter: 2480 RLU
Human CD40 [4]
  EC50: 1.45 nM
  Maximum MFI: 7520 MFI
Cynomolgus monkey CD40
  EC50: 2.43 nM
  Maximum MFI: 50100 MFI
Human PD-L1 [5]
  EC50: 1.46 nM
  Maximum MFI: 20400 MFI

B2: PR007556 (bispecific antibody, human IgG1, kappa)
heavy: QVQLVESGGGVVQPGMSLRLSCAASGFDFSSYGMYWVRQAPGKGQEWVASIRYTGTEKHYADSVKGRFTISRDNSKNTLYLEMNSLRVEDTAVYYCAKNRALFGVIPDDSDIRGQGTMVTVSSGGGGSQVQLVQSGAEVKKPGASVKVSCKASGYTFAGYYMYWVRQAPGQGLEWMGWINPDSGAPTYAQKFQGRVTMTRDTSISTAYMELSRLRSDDTAVYYCAREKIYYGSGNYYPSFDYWGQGTLVTVSSASTKGPSVFPLAPSSKSTSGGTAALGCLVKDYFPEPVTVSWNSGALTSGVHTFPAVLQSSGLYSLSSVVTVPSSSLGTQTYICNVNHKPSNTKVDKKVEPKSCDKTHTCPPCPAPEAAGAPSVFLFPPKPKDTLMISRTPEVTCVVVDVSHEDPEVKFNWYVDGVEVHNAKTKPREEQYNSTYRVVSVLTVLHQDWLNGKEYKCKVSNKALPAPIEKTISKAKGQPREPQVYTLPPSREEMTKNQVSLTCLVKGFYPSDIAVEWESNGQPENNYKTTPPVLDSDGSFFLYSKLTVDKSRWQQGNVFSCSVMHEALHNHYTQKSLSLSPGK
light: DIQLTQSPSFLSASVGDRVTITCRASQGISSYLAWYQQKPGKAPKLLIYAASTLQSGVPSRFSGSGSGTEFTLTISSLQPEDFATYYCQQLFSYPWTFGQGTKVEIKRTVAAPSVFIFPPSDEQLKSGTASVVCLLNNFYPREAKVQWKVDNALQSGNSQESVTEQDSKDSTYSLSSTLTLSKADYEKHKVYACEVTHQGLSSPVTKSFNRGEC
notes: VH of PR006248 (PD-L1) - GS_5 - heavy chain of CD40 IgG PR006496; human IgG1 L234A/L235A/G237A; also called PD-L1×CD40
Human CD40 [1]
  EC50: 1.69 nM
  Maximum MFI: 14600 MFI
Human PD-L1 [2]
  EC50: 0.452 nM
  Maximum MFI: 861 MFI
Cynomolgus monkey PD-L1
  EC50: 0.683 nM
  Maximum MFI: 4720 MFI
Human PD-L1 [3]
  EC50, Jurkat-NFAT-hPD1 reporter: 0.225 nM
  Maximum (RLU), Jurkat-NFAT-hPD1 reporter: 4080 RLU
Human CD40 [4]
  EC50: 1.28 nM
  Maximum MFI: 6560 MFI
Cynomolgus monkey CD40
  EC50: 2.58 nM
  Maximum MFI: 55500 MFI
Human PD-L1 [5]
  EC50: 1.03 nM
  Maximum MFI: 20100 MFI

B3: PR007616 (bispecific antibody, human IgG1, kappa)
heavy: QVQLVESGGGVVQPGMSLRLSCAASGFDFSSYGMYWVRQAPGKGQEWVASIRYTGTEKHYADSVKGRFTISRDNSKNTLYLEMNSLRVEDTAVYYCAKNRALFGVIPDDSDIRGQGTMVTVSSGGGGSQVQLVQSGAEVKKPGASVKVSCKASGYTFAGYYMYWVRQAPGQGLEWMGWINPDSGAPTYAQKFQGRVTMTRDTSISTAYMELSRLRSDDTAVYYCAREKIYYGSGNYYPSFDYWGQGTLVTVSSASTKGPSVFPLAPSSKSTSGGTAALGCLVKDYFPEPVTVSWNSGALTSGVHTFPAVLQSSGLYSLSSVVTVPSSSLGTQTYICNVNHKPSNTKVDKKVEPKSCDKTHTCPPCPAPEAAGAPSVFLFPPKPKDTLMISRTPEVTCVVVDVSHEDPEVKFNWYVDGVEVHNAKTKPREEQYNSTYRVVSVLTVLHQDWLNGKEYKCKVSNKALPAPIEKTISKAKGQPREPQVYTLPPSREEMTKNQVSLTCLVKGFYPSDIAVEWESNGQPENNYKTTPPVLDSDGSFFLYSKLTVDKSRWQQGNVFSCSVMHEALHNHYTQKSLSLSPGK
light: DIQLTQSPSFLSASVGDRVTITCRASQGISSYLAWYQQKPGKAPKLLIYAASTLQSGVPSRFSGSGSGTEFTLTISSLQPEDFATYYCQQLYSYPWTFGQGTKVEIKRTVAAPSVFIFPPSDEQLKSGTASVVCLLNNFYPREAKVQWKVDNALQSGNSQESVTEQDSKDSTYSLSSTLTLSKADYEKHKVYACEVTHQGLSSPVTKSFNRGEC
notes: VH of PR006248 (PD-L1) - GS_5 - heavy chain of CD40 IgG PR006497; human IgG1 L234A/L235A/G237A; also called PD-L1×CD40
Human CD40 [1]
  EC50: 1.99 nM
  Maximum MFI: 19200 MFI
Human PD-L1 [2]
  EC50: 0.303 nM
  Maximum MFI: 800 MFI
Cynomolgus monkey PD-L1
  EC50: 0.687 nM
  Maximum MFI: 4750 MFI
Human PD-L1 [3]
  EC50, Jurkat-NFAT-hPD1 reporter: 0.204 nM
  Maximum (RLU), Jurkat-NFAT-hPD1 reporter: 2590 RLU
Human CD40 [4]
  EC50: 1.24 nM
  Maximum MFI: 6680 MFI
Cynomolgus monkey CD40
  EC50: 2.22 nM
  Maximum MFI: 64700 MFI
Human PD-L1 [5]
  EC50: 1.07 nM
  Maximum MFI: 20300 MFI

B4: PR007617 (bispecific antibody, human IgG1, kappa)
heavy: QVQLVESGGGVVQPGMSLRLSCAASGFDFSSYGMYWVRQAPGKGQEWVASIRYTGTEKHYADSVKGRFTISRDNSKNTLYLEMNSLRVEDTAVYYCAKNRAIFGVIPDDSDIRGQGTMVTVSSGGSQVQLVQSGAEVKKPGASVKVSCKASGYTFAGYYMYWVRQAPGQGLEWMGWINPDSGAPTYAQKFQGRVTMTRDTSISTAYMELSRLRSDDTAVYYCAREKIYYGSGNYYPSFDYWGQGTLVTVSSASTKGPSVFPLAPSSKSTSGGTAALGCLVKDYFPEPVTVSWNSGALTSGVHTFPAVLQSSGLYSLSSVVTVPSSSLGTQTYICNVNHKPSNTKVDKKVEPKSCDKTHTCPPCPAPEAAGAPSVFLFPPKPKDTLMISRTPEVTCVVVDVSHEDPEVKFNWYVDGVEVHNAKTKPREEQYNSTYRVVSVLTVLHQDWLNGKEYKCKVSNKALPAPIEKTISKAKGQPREPQVYTLPPSREEMTKNQVSLTCLVKGFYPSDIAVEWESNGQPENNYKTTPPVLDSDGSFFLYSKLTVDKSRWQQGNVFSCSVMHEALHNHYTQKSLSLSPGK
light: DIQLTQSPSFLSASVGDRVTITCRASQGISSYLAWYQQKPGKAPKLLIYAASTLQSGVPSRFSGSGSGTEFTLTISSLQPEDFATYYCQQLASYPWTFGQGTKVEIKRTVAAPSVFIFPPSDEQLKSGTASVVCLLNNFYPREAKVQWKVDNALQSGNSQESVTEQDSKDSTYSLSSTLTLSKADYEKHKVYACEVTHQGLSSPVTKSFNRGEC
notes: VH of PR006246 (PD-L1) - GS_3 - heavy chain of CD40 IgG PR006495; human IgG1 L234A/L235A/G237A; also called PD-L1×CD40
Human CD40 [1]
  EC50: 1.96 nM
  Maximum MFI: 16800 MFI
Human PD-L1 [2]
  EC50: 0.337 nM
  Maximum MFI: 831 MFI
Cynomolgus monkey PD-L1
  EC50: 0.635 nM
  Maximum MFI: 4830 MFI
Human PD-L1 [3]
  EC50, Jurkat-NFAT-hPD1 reporter: 0.157 nM
  Maximum (RLU), Jurkat-NFAT-hPD1 reporter: 2190 RLU
Human CD40 [4]
  EC50: 1.27 nM
  Maximum MFI: 6850 MFI
Cynomolgus monkey CD40
  EC50: 2.45 nM
  Maximum MFI: 58700 MFI
Human PD-L1 [5]
  EC50: 1.01 nM
  Maximum MFI: 20200 MFI
